For experiment [1], the target named is human ETB-receptor (ET-receptor derived from pHETBR31 and pHETBR34) (human) (UniProt P24530). The experiment can be described thus: displacement of 125I-ET-1 from COS-7 cells expressing the ETB-receptor. (In general: Loss of bound radioactivity is the signal in a displacement assay; it reports binding, not function.)
Experiment [2] concerns the target human ETA-receptor (ET-receptor derived from phETIR) (human) (UniProt P25101). The experiment is described as follows: displacement of 50 pM 125I-ET-1 from COS-7 cells expressing the ETA-receptor.

The values below come from US20020082414A1.

Chain of human ETB-receptor (ET-receptor derived from pHETBR31 and pHETBR34) (human) (P24530 27-442 limits assumed, form in doubt): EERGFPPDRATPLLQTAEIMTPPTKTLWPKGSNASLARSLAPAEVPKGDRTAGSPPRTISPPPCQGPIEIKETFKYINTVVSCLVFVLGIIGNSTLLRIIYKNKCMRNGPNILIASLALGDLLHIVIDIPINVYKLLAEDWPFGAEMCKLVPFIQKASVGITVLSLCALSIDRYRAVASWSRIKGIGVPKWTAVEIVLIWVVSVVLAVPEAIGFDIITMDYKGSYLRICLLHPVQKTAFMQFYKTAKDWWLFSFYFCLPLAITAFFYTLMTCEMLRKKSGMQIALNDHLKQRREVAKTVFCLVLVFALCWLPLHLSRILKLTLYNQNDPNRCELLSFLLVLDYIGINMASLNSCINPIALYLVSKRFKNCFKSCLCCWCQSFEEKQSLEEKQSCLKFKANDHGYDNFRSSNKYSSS
Chain of human ETA-receptor (ET-receptor derived from phETIR) (human) (P25101 21-427 limits assumed, form in doubt): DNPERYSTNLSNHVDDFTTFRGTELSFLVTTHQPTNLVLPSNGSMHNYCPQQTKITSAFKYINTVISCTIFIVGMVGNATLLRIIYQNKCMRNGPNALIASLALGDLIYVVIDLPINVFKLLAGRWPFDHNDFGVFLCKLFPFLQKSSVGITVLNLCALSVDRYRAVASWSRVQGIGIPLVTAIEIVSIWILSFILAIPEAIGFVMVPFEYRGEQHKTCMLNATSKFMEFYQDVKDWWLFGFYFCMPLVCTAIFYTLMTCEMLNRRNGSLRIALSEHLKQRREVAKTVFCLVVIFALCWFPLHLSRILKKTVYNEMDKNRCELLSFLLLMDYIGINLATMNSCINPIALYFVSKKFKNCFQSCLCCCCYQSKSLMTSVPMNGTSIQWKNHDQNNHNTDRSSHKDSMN

In the case of “Endothelin 2 (from UniProt P20800 49-69) (peptide)”, the IC50 (usually the point on the concentration scale where inhibition reaches its midpoint) in experiment [1] is 1 nM; in experiment [2], 6.1 nM.

Substance “Endothelin 3 (from UniProt P14138 97-117) (peptide)” came in with an IC50 in experiment [1] of 1 nM.
